Assay results published in article PMC7112362.

Biological target: MERS-CoV papain-like cysteine protease (PLpro), His-tagged (MERS-CoV)
Test: activity-based probe labelling

Substance	percent of the protease labeled after 15 min [%]
K48-linked diUb "in-between" activity-based probe (from UniProt P0CG47 1-75; P0CG47 1-76)	50
K48-linked diUb "proximal" activity-based probe (from UniProt P0CG47 1-75; P0CG47 1-75)	50
